According to patent publication US6153408A, “Altered major histocompatibility complex (MHC) determinant and methods of using the determinant” (Institut Pasteur and Institut National de la Sante et de la …, priority 1995, dated 2000):
Values joined by “and” are separate entries in the source; they are usually repeats but may differ in a detail not shown here. Identical values can stand only once.

How the values were obtained:
[1] = biological target: HLA-DRw13 (Homo sapiens, UniProt P01903+P01911); experiment: Direct peptide binding assay: 125I-labeled HLA-DRw13 (positive control); details: for binding of peptide to DRw13 positive control (in words): direct assay, printed DR213
Description: (§1) Direct Peptide Binding Assay. Wells of microtiter plates are pretreated with 100 μl 2.5% glutaraldehyde in distilled water for 2 h at 20° C., washed with distilled water, and coated for 16 h at 4° C. with 100 μl of peptide diluted at 5 μg/ml either in carbonate-bicarbonate buffer, pH 9.6, or in PBS, pH 7.4 or pH 5.0. Remaining free sites are blocked by incubation for 2 h at 20° C. with BSA diluted 1% in PBS containing 0.05% Tween 20 (Tw) and 0.02% sodium azoture. […] After extensive washing, the radioactivity of each well is counted.

[2] = biological target: HLA-DR3 (Homo sapiens, UniProt P01903+P01911); experiment: Direct peptide binding assay: 125I-labeled HLA-DR3 (positive control); details: for binding of peptide to HLA-DR3 positive control (in words): direct assay
Description: as §1, with “and coated for 16 h at 4° C. with 100 μl of peptide diluted at 5 μg/ml either in carbonate-bicarbonate” left out

[3] = biological target: T1, SC-K^d -15 (Mus musculus, UniProt P01887+P01902); experiment: Direct peptide binding assay: 35S-labeled SC-Kd-15 on plastic-coated peptides; details: for ^35 S-labeled SC-Kd bound to coated peptide: duplicates; for binding of peptide to SC-K^d -15 (in words): direct assay
T1 construct: connecting residue 276 of K^d heavy chain to the first residue of β2 -microglobulin; mature mouse beta2-microglobulin, fused after the spacer (same polypeptide); expressed in transfected cells; host or cells: monkey COS-1 cells, transient
T1 sequence (P01902+P01887 with tags, fused parts or gaps): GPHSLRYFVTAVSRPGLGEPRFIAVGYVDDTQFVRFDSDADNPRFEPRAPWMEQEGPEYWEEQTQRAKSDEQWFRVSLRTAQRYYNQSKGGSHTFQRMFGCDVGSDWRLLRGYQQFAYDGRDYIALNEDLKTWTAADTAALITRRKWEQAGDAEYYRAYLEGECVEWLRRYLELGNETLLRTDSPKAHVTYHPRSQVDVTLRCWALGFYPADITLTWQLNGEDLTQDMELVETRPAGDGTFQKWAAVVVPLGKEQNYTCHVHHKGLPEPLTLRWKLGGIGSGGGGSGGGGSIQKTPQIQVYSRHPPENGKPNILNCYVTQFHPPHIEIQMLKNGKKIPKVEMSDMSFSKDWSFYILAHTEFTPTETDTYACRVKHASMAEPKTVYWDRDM
Description: as §1, with “and coated for 16 h at 4° C. with 100 μl of peptide diluted at 5 μg/ml either in carbonate-bicarbonate” left out
COS-1 cells (usually 10^7 cells) were transfected with pSC-K^d -15 DNA, labeled and lysed as above. […] After the final wash in PBS, SC-K^d -15 was eluted from the matrix with an equal volume of 3 M thiocyanate for 10 min on ice. After an overnight dialysis in PBS containing 0.1% NP40, 0.05% Tween and 0.2% BSA, SC-K^d -15 was used in direct binding test as below. Its purity was assessed by SDS-PAGE.
K^d molecules isolated from the spleen of BALB/c mice were then purified and iodinated.

[4] = biological target: T2, H-2K (Mus musculus, UniProt P01902); experiment: Direct peptide binding assay: 125I-labeled conventional Kd from BALB/c spleen
T2 construct: K^d molecules isolated from the spleen of BALB/c mice were then purified and iodinated; from tissue; host or cells: spleen of BALB/c mice
T2 sequence (P01902 22-368): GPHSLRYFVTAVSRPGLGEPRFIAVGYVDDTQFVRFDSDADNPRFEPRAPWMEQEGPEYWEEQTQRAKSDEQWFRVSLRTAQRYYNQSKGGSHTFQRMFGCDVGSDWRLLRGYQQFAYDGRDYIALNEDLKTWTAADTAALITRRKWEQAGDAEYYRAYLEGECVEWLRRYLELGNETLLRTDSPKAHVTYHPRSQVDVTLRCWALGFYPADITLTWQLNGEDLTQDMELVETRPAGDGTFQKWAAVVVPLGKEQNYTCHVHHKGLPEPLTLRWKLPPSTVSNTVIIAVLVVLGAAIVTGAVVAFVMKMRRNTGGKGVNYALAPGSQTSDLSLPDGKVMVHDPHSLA
T2 sequence (P01887 21-119 partner): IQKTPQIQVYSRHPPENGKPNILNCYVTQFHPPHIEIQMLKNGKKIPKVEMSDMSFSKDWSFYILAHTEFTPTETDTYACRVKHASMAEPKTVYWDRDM
Description: Direct Peptide Binding Assay. Wells of microtiter plates are pretreated with 100 μl 2.5% glutaraldehyde in distilled water for 2 h at 20° C., washed with distilled water, and coated for 16 h at 4° C. with 100 μl of peptide diluted at 5 μg/ml either in carbonate-bicarbonate buffer, pH 9.6, or in PBS, pH 7.4 or pH 5.0. Remaining free sites are blocked by incubation for 2 h at 20° C. with BSA diluted 1% in PBS containing 0.05% Tween 20 (Tw) and 0.02% sodium azoture. After washing, purified ^125 I-HLA molecules (100 μl containing 1.5×10^5 cpm, 10^-9 M) diluted in PBS containing 1% BSA, 0.05% Tw, 0.02% sodium azoture, 1 mM PMSF, and 10 μg/ml trypsin inhibitor are added and incubated for 20 h at 20° C. After extensive washing, the radioactivity of each well is counted.
Peptides used in this study are described in Choppin et al. (Choppin, J., Martinon, F., Gomard, E., Bahraoui, E., Connan, F., Bouillot, F., and Levy, J. -P, J. Exp. Med., 1990. 172:889 and references therein), except for HLA-Cw3 and HLA-A24 described in Maryanski, J. Ll, Pala, P., Cerottini, J. -C, and Corradin, G., J. Exp. Med. 1988. 167:1391. Binding assays were performed as described in Choppin, J., Martinon, F., Gomard, E., Bahraoui, E., Connan, F., Bouillot, F., and Levy, J. -P, J. Exp. Med., 1990. 172:889. […]

[5] = biological target: T1, SC-K^d -15; experiment: Competition experiment, env 312-327 bound to plastic, 35S-labeled SC-Kd; type: binding; details: Table (B) shows it for SC-Kd and H-2K

Sequence of HLA-DRw13 (P01903 26-254): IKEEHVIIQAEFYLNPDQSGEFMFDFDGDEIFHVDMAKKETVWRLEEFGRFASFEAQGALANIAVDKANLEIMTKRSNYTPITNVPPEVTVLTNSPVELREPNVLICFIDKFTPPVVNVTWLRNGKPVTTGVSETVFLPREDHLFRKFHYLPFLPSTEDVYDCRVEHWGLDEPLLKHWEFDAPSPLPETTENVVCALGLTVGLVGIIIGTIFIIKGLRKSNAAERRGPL
Sequence of HLA-DRw13 (P01911 30-266): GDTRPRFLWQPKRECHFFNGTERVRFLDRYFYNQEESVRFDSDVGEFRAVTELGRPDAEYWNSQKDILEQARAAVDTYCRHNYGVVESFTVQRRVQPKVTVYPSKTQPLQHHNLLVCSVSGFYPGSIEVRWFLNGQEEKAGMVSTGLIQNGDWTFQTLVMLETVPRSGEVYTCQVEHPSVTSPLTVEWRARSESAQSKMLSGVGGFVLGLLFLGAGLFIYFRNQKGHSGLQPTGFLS
Sequence of HLA-DR3 (P01903 26-254): as the sequence (P01903 26-254) above
Sequence of HLA-DR3 (P01911 30-266): as the sequence (P01911 30-266) above

Sequence	binding of peptide to DRw13 positive control (in words) [1]	binding of peptide to HLA-DR3 positive control (in words) [2]	^35 S-labeled SC-Kd bound to coated peptide ([3]; Table 10 (A), peptide 30 μg/ml, pH 9.6, input 10,000 cpm) [cpm]	^35 S-labeled SC-Kd bound to coated peptide ([3]; Table (B), peptide 5 μg/ml, pH 9.6, input 6000 cpm, no coated peptide 228/223) [cpm]	binding of peptide to SC-K^d -15 (in words) [3]	binding of peptide to conventional K^d (in words) [4]	^125 I-labeled HLA-DRw13 bound to coated peptide ([1]; Table 10 (A), peptide 10 μg/ml, pH 5, input 200000 cpm, second value of cell, duplicates)	competition with plastic-bound env 312-327 peptide (in words) [5]	^125 I-labeled HLA-DR3 bound to coated peptide ([2]; Table 10 (A), peptide 10 μg/ml, pH 5, input 200000 cpm, first value of cell, duplicates)	^35 S-labeled SC-Kd bound to coated peptide ([3]; Table 10 (A), peptide 10 μg/ml, pH 5, input 10,000 cpm)
IRIQRGPGRAFVTIGK [env 312-327, HIV 1 Env peptide, residues 312-327]	significant binding	significant binding	750	390	significant binding	found to bind				
LFIHFRIGCRHSR [vpr 68-80]	significant binding	significant binding			significant binding		21838 cpm and 20593 cpm	competed efficiently	18582 cpm and 18245 cpm	710 cpm and 621 cpm
